The values below come from patent US20130177979A1, “METHODS AND COMPOSITIONS FOR CELL PERMEABLE STAT3 INHIBITOR” (University of Central Florida Research Foundation, Inc., priority 2010, published 2013).

Experiment [1] addresses GpYLPQTV (IL-6R/gp130-derived pTyr peptide). The experiment can be described thus: SPR (SensiQ), His-tagged protein immobilised on HisCap chip, pTyr peptide as analyte.
In experiment [2] the target is 5-carboxyfluorescein-GpYLPQTV-NH2. The experiment can be described thus: Fluorescence polarization saturation curve; 10 nM 5-carboxyfluorescein-GpYLPQTV-NH2 probe with increasing purified His-Stat3. On the technique in general: Fluorescence polarisation rises when a labelled molecule tumbles more slowly, as on binding a larger partner.
Experiment [3] deals with GpYVKPQ (pTyr peptide of Stat5). Put plainly: SPR (SensiQ); His-tagged Stat3 SH2 domain immobilised on a HisCap sensor chip, GpYVKPQ passed over as analyte; sensorgram shown at 100 µM.
The target of experiment [4] is GpYIKTE (Stat1 pY701 peptide). Put plainly: SPR (SensiQ), His-tagged protein immobilised on HisCap chip, pTyr peptide as analyte.
In experiment [5] the target is PVpYHNQP (pY1086 peptide of EGFR). The description is as above.
For experiment [6], the target named is PpYLKTK (Stat3-derived pTyr705 peptide). The experiment is described as above.
For experiment [7], the target named is PEpYINQS (pY1068 peptide of EGFR). Described as above.
For experiment [8], the target named is GpYVKPQ (pTyr peptide of Stat5). Described as above.

For His-tagged Stat3 (full-length Stat3), in experiment [1], the Kd (as a rule, the equilibrium constant for the complex coming apart) turned out to be 0.02 µM. In experiment [2], the EC50 (read off the curve) (commonly the midpoint of the concentration-response curve) is 0.1 µM.
Regarding His-tagged Stat3 SH2 domain, the Kd in experiment [3] was determined as 5140 µM; in experiment [4], 6.6 µM; in experiment [5] it was 2.6 µM; in experiment [6], 1.6 µM; in experiment [7] it was 0.4 µM; in experiment [1] it was 0.03 µM. The substance also yielded a Kd in experiment [8] of 5200 µM.
